Source: article PMC9513094

Tests used:
GFP-TRB1 (Arabidopsis) = GFP-TRB1 (Arabidopsis) (UniProt Q8VWK4); test: FRET or BRET; FRET-FLIM (TCSPC); GFP fusion as donor, RFP fusion as acceptor, co-expressed in plant cells; donor alone as control; 10 images a series
GFP-TRB2 (Arabidopsis) = GFP-TRB2 (Arabidopsis) (UniProt Q9FJW5); test: as above
Sequence of UniProt Q9FJW5 (Q9FJW5 whole entry): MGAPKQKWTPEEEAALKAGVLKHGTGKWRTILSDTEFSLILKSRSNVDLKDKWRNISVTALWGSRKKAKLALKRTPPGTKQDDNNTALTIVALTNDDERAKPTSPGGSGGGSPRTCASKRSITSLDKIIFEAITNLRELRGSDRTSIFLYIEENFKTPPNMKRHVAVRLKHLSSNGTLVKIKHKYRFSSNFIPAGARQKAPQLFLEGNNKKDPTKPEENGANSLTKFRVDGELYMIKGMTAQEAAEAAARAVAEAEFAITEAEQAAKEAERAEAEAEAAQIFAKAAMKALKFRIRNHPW

Sequence of UniProt Q8VWK4 (Q8VWK4 whole entry, the tested form may be a part): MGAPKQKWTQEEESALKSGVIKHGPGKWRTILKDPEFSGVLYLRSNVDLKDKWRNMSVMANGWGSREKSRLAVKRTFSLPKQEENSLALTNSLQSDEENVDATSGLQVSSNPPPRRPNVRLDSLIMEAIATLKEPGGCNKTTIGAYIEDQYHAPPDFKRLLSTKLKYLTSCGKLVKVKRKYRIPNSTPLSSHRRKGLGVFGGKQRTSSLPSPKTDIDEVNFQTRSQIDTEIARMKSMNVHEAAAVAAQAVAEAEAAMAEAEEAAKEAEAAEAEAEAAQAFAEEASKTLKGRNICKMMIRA

fluorescence lifetime of the GFP donor in the presence of the RFP acceptor (GFP-TRB1 (Arabidopsis)) [ns] | fluorescence lifetime of the GFP donor in the presence of the RFP acceptor (GFP-TRB2 (Arabidopsis)) [ns] | Binder
2.31 | 2.21 | RFP-VAP27-1 (natural protein) MSNIDLIGMSNRDLIGMSNSELLTVEPLDLQFPFELKKQISCSLYLTNKTDNNVAFKVKTTNPKKYCVRPNTGVVLPRSTCEVLVTMQAQKEAPSDMQCKDKFLLQGVIASPGVTAKEVTPEMFSKEAGHRVEETKLRVTYVAPPRPPSPVHEGSEEGSSPRASVSDNGHGSEFSFERFIVDNKAGHQENTSEARALITKLTEEKQSAIQLNNRLQRELDQLRRESKKSQSGGIPFMYVLLVGLIGLILGYIMKRT
2.3 |  | RFP-ATG8e (natural protein) MNKGSIFKMDNDFEKRKAEAGRIREKYPDRIPVIVEKAEKSEVPNIDKKKYLVPSDLTVGQFVYVIRKRIKLSAEKAIFIFVDNVLPPTGELMSSVYEDKKDEDGFLYITYSGENTFG
